Test results published in patent US20240376224A1 (University of California, published 2024).

Key:
[1] = biological target: T1, c-CDCP1 (Cut 3) on HEK293T cells (human, UniProt Q9H5V8 30-369; Q9H5V8 370-836); assay: flow cytometry, dose response on HEK293T-cCDCP1 cells (CDCP1 WT)
T1 construct: T2A remnants not described; also called HEK293T c-CDCP1
T1 sequence 1: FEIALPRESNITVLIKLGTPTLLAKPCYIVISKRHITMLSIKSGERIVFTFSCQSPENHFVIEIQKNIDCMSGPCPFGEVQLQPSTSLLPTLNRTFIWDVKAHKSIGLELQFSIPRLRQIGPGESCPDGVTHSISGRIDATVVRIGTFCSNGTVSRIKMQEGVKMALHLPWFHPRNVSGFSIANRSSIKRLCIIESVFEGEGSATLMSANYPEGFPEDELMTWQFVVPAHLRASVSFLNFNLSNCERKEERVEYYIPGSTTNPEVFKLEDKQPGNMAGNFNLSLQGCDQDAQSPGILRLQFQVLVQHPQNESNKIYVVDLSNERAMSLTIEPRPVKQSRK
T1 sequence 2: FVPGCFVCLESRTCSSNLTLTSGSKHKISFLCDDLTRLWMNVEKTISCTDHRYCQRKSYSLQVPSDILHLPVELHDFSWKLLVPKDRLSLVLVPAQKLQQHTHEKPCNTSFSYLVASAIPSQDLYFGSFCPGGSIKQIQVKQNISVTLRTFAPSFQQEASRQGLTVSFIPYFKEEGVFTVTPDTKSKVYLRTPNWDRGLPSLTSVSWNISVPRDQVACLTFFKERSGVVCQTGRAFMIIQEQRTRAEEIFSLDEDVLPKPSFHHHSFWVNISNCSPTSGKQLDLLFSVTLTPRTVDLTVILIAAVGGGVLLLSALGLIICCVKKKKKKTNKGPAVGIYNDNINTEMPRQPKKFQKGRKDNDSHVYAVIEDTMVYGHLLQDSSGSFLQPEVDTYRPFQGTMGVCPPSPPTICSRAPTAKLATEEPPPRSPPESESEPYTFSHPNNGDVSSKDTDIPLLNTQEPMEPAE

[2] = biological target: T2, full-length (uncleaved) human CDCP1 on cells (human, UniProt Q9H5V8 30-836); assay: flow cytometry, dose response on HEK293T-flCDCP1 cells (CDCP1 WT)
T2 construct: HPAC cells express mostly uncleaved CDCP1 (endogenous); also called fl-CDCP1; uncleaved CDCP1 on HPAC cells
T2 sequence: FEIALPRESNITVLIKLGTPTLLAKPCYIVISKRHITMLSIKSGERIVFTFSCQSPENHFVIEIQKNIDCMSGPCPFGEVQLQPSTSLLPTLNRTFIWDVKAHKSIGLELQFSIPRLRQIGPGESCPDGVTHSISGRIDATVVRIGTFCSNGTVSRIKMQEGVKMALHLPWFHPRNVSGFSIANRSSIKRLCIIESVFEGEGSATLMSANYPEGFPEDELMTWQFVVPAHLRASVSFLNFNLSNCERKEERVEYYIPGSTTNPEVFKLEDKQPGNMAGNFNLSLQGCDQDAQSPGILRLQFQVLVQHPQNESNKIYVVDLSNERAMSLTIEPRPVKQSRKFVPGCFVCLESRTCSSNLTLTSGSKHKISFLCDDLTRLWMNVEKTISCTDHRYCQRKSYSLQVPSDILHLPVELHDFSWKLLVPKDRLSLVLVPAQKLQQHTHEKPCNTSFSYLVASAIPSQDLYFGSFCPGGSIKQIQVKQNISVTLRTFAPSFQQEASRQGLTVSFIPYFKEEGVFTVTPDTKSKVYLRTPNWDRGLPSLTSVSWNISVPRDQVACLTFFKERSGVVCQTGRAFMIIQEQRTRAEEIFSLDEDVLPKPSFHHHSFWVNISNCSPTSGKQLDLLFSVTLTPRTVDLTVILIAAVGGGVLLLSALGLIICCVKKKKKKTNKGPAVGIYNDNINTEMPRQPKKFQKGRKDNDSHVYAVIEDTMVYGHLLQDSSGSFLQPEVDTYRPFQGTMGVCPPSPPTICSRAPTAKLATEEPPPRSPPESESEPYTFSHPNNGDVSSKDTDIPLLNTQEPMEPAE

B1: IgG 4A06 (antibody, V domains shown)
VH: EVQLVESGGGLVQPGGSLRLSCAASGFNLSYYYIHWVRQAPGKGLEWVASIYSSSSYTSYADSVKGRFTISADTSKNTAYLQMNSLRAEDTAVYYCARAYYGFDYWGQGTLVTVSS
VL: DIQMTQSPSSLSASVGDRVTITCRASQSVSSAVAWYQQKPGKAPKLLIYSASSLYSGVPSRFSGSRSGTDFTLTISSLQPEDFATYYCQQSYYYYPITFGQGTKVEIK
[1]
  EC50 (read off the curve): ~0.4 nM
[2]
  EC50 (read off the curve): ~1 nM
